No end group written: not given here. *: point of attachment. Biotin = O=C1N[C@H]2[C@H](CS[C@H]2CCCCC(=O)*)N1
Assays:
Assay in all cases: G3 assay titration, immobilised GST-PDZ
[1] = target: T1, GST-INADL PDZ domain 3 fusion protein (human), Q8NI35
T1 chain: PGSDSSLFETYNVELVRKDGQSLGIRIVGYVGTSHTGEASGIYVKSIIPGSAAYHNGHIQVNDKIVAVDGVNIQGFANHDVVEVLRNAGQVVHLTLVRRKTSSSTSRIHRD

[2] = target: T2, GST-ZO-1 PDZ domain 2 fusion protein (human)
T2 chain: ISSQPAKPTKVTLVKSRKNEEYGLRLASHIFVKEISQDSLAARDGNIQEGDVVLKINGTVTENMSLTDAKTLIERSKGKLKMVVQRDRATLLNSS

[3] = target: T3, GST-RIM2 PDZ domain 1 fusion protein (human)
T3 chain: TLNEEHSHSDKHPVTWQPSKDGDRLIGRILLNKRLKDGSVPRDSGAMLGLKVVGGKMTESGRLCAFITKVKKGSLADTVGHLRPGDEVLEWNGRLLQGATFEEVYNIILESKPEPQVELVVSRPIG

[4] = target: T4, GST-MINT1 PDZ domains 1,2 fusion protein (human)
T4 chain: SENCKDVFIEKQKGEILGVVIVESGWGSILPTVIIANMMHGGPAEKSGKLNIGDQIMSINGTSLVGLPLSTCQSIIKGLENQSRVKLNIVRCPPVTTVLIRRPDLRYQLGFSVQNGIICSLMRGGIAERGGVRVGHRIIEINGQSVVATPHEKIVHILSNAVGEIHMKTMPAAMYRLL

[5] = target: T5, GST-MAST2 PDZ domain 1 fusion protein (human), Q6P0Q8
T5 chain: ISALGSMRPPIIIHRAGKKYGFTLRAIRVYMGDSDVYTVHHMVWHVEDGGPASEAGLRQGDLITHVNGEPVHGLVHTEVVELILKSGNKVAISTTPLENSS

[6] = target: T6, GST-Syntrophin 1 alpha PDZ domain 1 fusion protein (human), Q13424
T6 chain: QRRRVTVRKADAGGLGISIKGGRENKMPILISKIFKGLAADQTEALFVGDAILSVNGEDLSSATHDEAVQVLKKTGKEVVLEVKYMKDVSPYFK

[7] = target: GST-PAR3 PDZ domain 3 fusion protein (human), Q8TEW0
[8] = target: T7, GST-MUPP1 PDZ domain 3 fusion protein (human), O75970
T7 chain: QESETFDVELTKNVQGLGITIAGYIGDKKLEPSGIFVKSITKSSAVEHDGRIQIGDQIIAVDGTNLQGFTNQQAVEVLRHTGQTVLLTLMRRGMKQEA

[9] = target: T8, GST-MINT1 PDZ domain 2 fusion protein (human)
T8 chain: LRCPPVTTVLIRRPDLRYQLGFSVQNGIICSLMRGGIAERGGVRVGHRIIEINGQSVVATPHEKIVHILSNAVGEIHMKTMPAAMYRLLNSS

[10] = target: T9, GST-SITAC 18 PDZ domain 1 fusion protein (human), Q9H190
T9 chain: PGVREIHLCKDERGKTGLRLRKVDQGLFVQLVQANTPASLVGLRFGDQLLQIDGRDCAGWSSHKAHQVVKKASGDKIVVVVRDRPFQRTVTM

[11] = target: T10, GST-KIAA1284 PDZ domain 1 fusion protein (human), Q9ULD6
T10 chain: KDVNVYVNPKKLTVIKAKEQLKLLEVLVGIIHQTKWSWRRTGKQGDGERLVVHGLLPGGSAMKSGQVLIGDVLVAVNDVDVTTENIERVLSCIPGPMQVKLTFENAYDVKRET

[12] = target: T11, GST-LIM mystique PDZ domain 1 fusion protein (human), Q96JY6
T11 chain: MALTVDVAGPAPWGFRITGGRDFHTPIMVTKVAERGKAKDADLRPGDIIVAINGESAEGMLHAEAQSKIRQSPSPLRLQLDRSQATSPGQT

[13] = target: T12, GST-SITAC 18 PDZ domain 2 fusion protein (human), Q9H190
T12 chain: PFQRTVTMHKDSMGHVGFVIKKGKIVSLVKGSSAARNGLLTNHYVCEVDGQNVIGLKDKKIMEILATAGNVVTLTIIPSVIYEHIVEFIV

[14] = target: T13, GST-TIP1 PDZ domain 1 fusion protein (human), O14907
T13 chain: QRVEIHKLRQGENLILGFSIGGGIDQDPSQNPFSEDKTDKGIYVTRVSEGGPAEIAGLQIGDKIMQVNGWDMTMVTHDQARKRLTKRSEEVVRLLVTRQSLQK

[15] = target: T14, GST-MINT1 PDZ domain 1 fusion protein (human)
T14 chain: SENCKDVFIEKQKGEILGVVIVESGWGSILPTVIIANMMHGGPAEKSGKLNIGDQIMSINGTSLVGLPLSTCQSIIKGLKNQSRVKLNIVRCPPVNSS

[16] = target: GST-PAR3L PDZ domain 3 fusion protein (human), Q8TEW8
Sequence of GST-PAR3L PDZ domain 3 fusion protein (human), Q8TEW8 (Q8TEW8 other isoform, or with tags, fused parts or gaps): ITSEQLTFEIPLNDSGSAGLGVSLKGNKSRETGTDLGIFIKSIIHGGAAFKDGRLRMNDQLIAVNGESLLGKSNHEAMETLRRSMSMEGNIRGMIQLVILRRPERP

Sequence of GST-PAR3 PDZ domain 3 fusion protein (human), Q8TEW0 (Q8TEW0 other isoform, or with tags, fused parts or gaps): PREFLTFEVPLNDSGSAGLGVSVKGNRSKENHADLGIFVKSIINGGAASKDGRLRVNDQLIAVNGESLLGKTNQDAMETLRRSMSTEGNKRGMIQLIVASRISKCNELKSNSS

Binder: Biotin-YGRKKRRQRRRARGTRLVWV [Peptide #1844 (biotin-…)]
- EC50 [1]: < 20 nM
- ODmax (450 nm) [1]: 2.4 OD 450 nm
- EC50 [2]: < 20 nM
- ODmax (450 nm) [2]: 2.6 OD 450 nm

Binder: Biotin-YGRKKRRQRRRARSDRTIIA [Peptide #1830 (biotin-…)]
- EC50 [1]: < 2000 nM
- ODmax (450 nm) [1]: 1.2 OD 450 nm
- EC50 [2]: < 20 nM
- ODmax (450 nm) [2]: 1.8 OD 450 nm

Binder: Biotin-YGRKKRRQRRRSRTDRKYWA [Peptide #1832 (biotin-…)]
- EC50 [1]: 200 nM
- ODmax (450 nm) [1]: 0.6 OD 450 nm
- EC50 [2]: < 20 nM
- ODmax (450 nm) [2]: 2.1 OD 450 nm

Binder: Biotin-YGRKKRRQRRRARSDRTIWA [Peptide #1829 (biotin-…)]
- ODmax (450 nm) [1]: 1.4 OD 450 nm
- EC50 [2]: 7 nM
- ODmax (450 nm) [2]: 2.9 OD 450 nm

Binder: Biotin-YGRKKRRQRRRSRTDRKYQI [Peptide #1839 (biotin-…)]
- EC50 [1]: 130 nM
- ODmax (450 nm) [1]: 1.6 OD 450 nm
- EC50 [2]: < 20 nM
- ODmax (450 nm) [2]: 2.5 OD 450 nm

Binder: Biotin-YGRKKRRQRRRARGDRKIRV [Peptide #1836 (biotin-…)]
- ODmax (450 nm) [1]: 0.3 OD 450 nm
- EC50 [2]: < 10 nM
- ODmax (450 nm) [2]: 2.6 OD 450 nm

Binder: Biotin-YGRKKRRQRRRARGDRLVSL [Peptide #1843 (biotin-…)]
- EC50 [1]: < 2000 nM
- ODmax (450 nm) [1]: 1.2 OD 450 nm
- EC50 [2]: 17 nM
- ODmax (450 nm) [2]: 2.2 OD 450 nm

Binder: Biotin-YGRKKRRQRRRARGDRTIIY [Peptide #1848 (biotin-…)]
- EC50 [1]: < 2000 nM
- ODmax (450 nm) [1]: 1.2 OD 450 nm
- EC50 [2]: < 20 nM
- ODmax (450 nm) [2]: 2.2 OD 450 nm

Binder: Biotin-YGRKKRRQRRRARGDRYRIV [Peptide #1845 (biotin-…)]
- EC50 [1]: < 100 nM
- ODmax (450 nm) [1]: 2.2 OD 450 nm
- EC50 [2]: < 100 nM
- ODmax (450 nm) [2]: 2.3 OD 450 nm

Binder: Biotin-YGRKKRRQRRRARGDRKYIV [Peptide #1838 (biotin-…)]
- EC50 [1]: < 100 nM
- ODmax (450 nm) [1]: 2.6 OD 450 nm
- EC50 [2]: < 100 nM
- ODmax (450 nm) [2]: 2.6 OD 450 nm

Binder: Biotin-YGRKKRRQRRRARTDRKVEV [Peptide #1837 (biotin-…)]
- ODmax (450 nm) [1]: 0.37 OD 450 nm
- EC50 [2]: < 20 nM
- ODmax (450 nm) [2]: 1.8 OD 450 nm

Binder: YGRKKRRQRRRSTNSVRLML (not fully specified)
- EC50 [3]: 47 nM
- ODmax (450 nm) [3]: 2.1 OD 450 nm
- EC50 [4]: 180 nM
- ODmax (450 nm) [4]: 1.9 OD 450 nm
- EC50 [5]: 110 nM
- ODmax (450 nm) [5]: 2.1 OD 450 nm
- EC50 [6]: 160 nM
- ODmax (450 nm) [6]: 2.05 OD 450 nm
- EC50 [7]: 18 nM
- ODmax (450 nm) [7]: 2.5 OD 450 nm
- EC50 [8]: 290 nM
- ODmax (450 nm) [8]: 2.06 OD 450 nm
- EC50 [9]: < 2000 nM
- ODmax (450 nm) [9]: 0.76 OD 450 nm
- EC50 [10]: < 1000 nM
- ODmax (450 nm) [10]: 1.7 OD 450 nm
- ODmax (450 nm) [11]: 0.63 OD 450 nm
- EC50 [1]: 120 nM
- ODmax (450 nm) [1]: 1.9 OD 450 nm
- EC50 [12]: 90 nM
- ODmax (450 nm) [12]: 2.1 OD 450 nm
- EC50 [13]: 90 nM
- ODmax (450 nm) [13]: 1.95 OD 450 nm
- EC50 [2]: 33 nM
- ODmax (450 nm) [2]: 2.2 OD 450 nm
- EC50 [14]: < 1000 nM
- ODmax (450 nm) [14]: 1.82 OD 450 nm
- ODmax (450 nm) [15]: 0.33 OD 450 nm
- EC50 [16]: 100 nM
- ODmax (450 nm) [16]: 1.97 OD 450 nm

Binder: Biotin-YGRKKRRQRRRARGRRETWV [Peptide #1854 (biotin-…)]
- EC50 [1]: < 20 nM
- ODmax (450 nm) [1]: 2.1 OD 450 nm
- ODmax (450 nm) [2]: 2.8 OD 450 nm

Binder: Biotin-YGRKKRRQRRREKHFRETEV [Peptide #AA353 (biotin-…)]
- EC50 [14]: < 2 nM
- ODmax (450 nm) [14]: 3 OD 450 nm

Binder: Biotin-YGRKKRRQRRRQDERRLIVL [Peptide #1842 (biotin-…)]
- EC50 [1]: < 1000 nM
- ODmax (450 nm) [1]: 1.9 OD 450 nm
- EC50 [2]: 35 nM
- ODmax (450 nm) [2]: 2.3 OD 450 nm

— patent publication US20050164933A1
